Measurements: patent US8088892B2, “Inhibitors of proteins from the Rho-GEF family” (Centre National de la Recherche Scientifique (C.N.R.S.), priority 2002, dated 2012)

What was measured:
[1] = molecular target: T1, TrioGEFD2 (DH2PH2, amino acids 1848-2298) (Homo sapiens, UniProt O75962); experiment: Binding specificity of aptamers in yeast (two-hybrid, growth on selective medium); parameters: key to Binding in yeast: +++^1 and +^1 represent respectively a full and a partial (see FIG. 1) binding capacity; +++^1 and +^1 represent respectively a full and a partial (see FIG. 1) binding capacity; −−^1 represents a lack of binding
T1 construct: TrioGEFD2 (DH2PH2, amino acids 1848-2298); expressed in transfected cells; host or cells: yeast strain EGY048
Source text: Trx represents the thioredoxin protein with no inserted peptide.
In order to identify specific inhibitors of TrioGEFD2, a recently developed strategy was used, this strategy being derived from the yeast two hybrid system, where the cDNA library of preys has been replaced by a combinatorial library of short peptides (20 amino acids) in fusion with the bacterial protein thioredoxin A (Colas et al., 1996). This strategy has been successfully used to isolate specific inhibitors of the cyclin-dependent kinases (Cdks), the cell cycle transcription factor E2F, or the viral HPV16 E6 oncoprotein and HBEV core protein (Colas et al., 1996; Butz et al., 2001; Fabrizzio et al., 1999; Geyer et al., 2000). The TrioGEFD2 bait was constructed as follows: plasmid pMTHATrio1848-2298 (Bellanger et al., 1998) was digested with EcoRI/XhoI and the insert cloned in pEG202EcoRI/XhoI to generate the bait pEG202TroGEFD2. Yeast strain EGY048 (Colas et al., 1996) was transformed with pEG202TrioGEFD2 and subsequently with the library of Thioredoxin constrained aptamers according to standard procedures (Ito et al., 1983). After transformation, cells were allowed to recover for 4 hours in galactose containing medium before plating on selective galactose medium. Of the 2×10^6 screened colonies, those growing in the selective medium were recovered and retested for interaction. […]

Dbl = molecular target: T2, Dbl (Homo sapiens, UniProt P10911); experiment: In vitro GEF assay on RhoA; assay type: biochemical; parameters: key to in vitro GEF assay (inhibition): +++^2 and +^2 represent respectively a full and a partial (see FIG. 3) inhibitory effect; +++^2 and +^2 represent respectively a full and a partial (see FIG. 3) inhibitory effect; −−^2 represents a lack of inhibitory effect
T2 construct: made in house
T2 sequence (P10911 495-826): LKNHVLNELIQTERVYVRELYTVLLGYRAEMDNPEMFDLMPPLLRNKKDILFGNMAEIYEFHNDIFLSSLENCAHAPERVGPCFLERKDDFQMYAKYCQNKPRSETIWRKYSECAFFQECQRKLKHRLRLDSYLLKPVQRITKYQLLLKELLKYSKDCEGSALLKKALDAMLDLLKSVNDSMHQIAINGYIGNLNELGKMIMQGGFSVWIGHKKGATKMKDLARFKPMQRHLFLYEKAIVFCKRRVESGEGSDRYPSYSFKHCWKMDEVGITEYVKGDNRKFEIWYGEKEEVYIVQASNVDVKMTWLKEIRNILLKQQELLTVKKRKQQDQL
Source text: An in vitro guanine nucleotide exchange (GEF) assay was used to test whether the TrioGEFD2-binding aptamers could inhibit the catalytic activity of TrioGEFD2 towards RhoA. For this purpose, the aptamers TRIAPα, TRIAPβ and TRIAPγ (including the Trx gene) were excised from pEG202 as EcoRI/NotI fragments and cloned into pGEX4T1 EcoRI/NotI. The aptamers were then expressed and purified from bacteria as GST fusion proteins, using standard procedures (Smith and Johnson, 1988). GTPase-GST fusion proteins were prepared, loaded with [^3H]GDP and the guanine nucleotide release assays were performed as described (Debant et al., 1996), using recombinant GST-TrioGEFD2 (a.a. 1848-2298), TrioDH2 (a.a. 1848-2096). For each point, 0.3 μM GTPase was mixed with or without 0.4 μM GEF in presence of non-labeled GTP, and the reaction mix was filtered after 0 min and 15 mm reaction at 25° C. The catalytic activity of TrioGEFD2 was thus measured by the decrease of the GTPase-associated radioactivity. The results are expressed as the ratio “exchange after 15 min over exchange after 0 min” (% bound [^3H]GDP-RhoA). To measure the effect of the aptamers on the exchange activity, a 20-fold molar excess of GST-TRIAPs was pre-incubated with GEFD2 (or GEFD1) for 30 min on ice before the exchange assay was carried out. For each experiment, data were obtained in triplicate. […]

Binding in yeast ([1]; RhoGEF TrioDH2PH2): +++^1 | Binding to TrioGEFD2 (DH2PH2) in yeast ([1]; growth on selective medium): binding to TrioGEFD2 | in vitro GEF assay (inhibition) (Dbl; RhoGEF Dbl): −−^2 | Effect on Dbl exchange activity (Dbl; data not shown): not affected
B1: TRIAPα: aptamer of 154 amino acids: variable region of 42 amino acids inserted into the thioredoxin protein; tested as GST fusion (protein)
chain: MSDKIIHLTDDSFDTDVLKADGAILVDFWAEWCGPAREGADGAICGYNLATLVMLGPSERVFCPLCEPCSSDIYELMGPCKMIAPILDEIADEYQGKLTVAKLNIDQNPGTAPKYGIRGIPTLLLFKNGEVASATKVGALSKGQLKEFLDANLA
